Laboratory results as given in PMC11969024 (2025).

B1: peptide HD2 (from tick evasin EVA4) / CCL18 (biotinylated, synthetic) (parent complex)
chain 1: EEDDYTAYAPLTCYFT
chain 2: AQVGTNKELCCLVYTSWQIPQKFIVDYSETSPQCPKPGVILLTKRGRQICADPNKKWVQKYISDLKLNA

Variants of: B1
With chain 1 Y14N the enrichment was -4.78 log2 (difference from the parental peptide). For chain 1 A9H, the enrichment was -4.5 log2 (difference from the parental peptide). With chain 1 P10Q the enrichment was -5.59 log2 (difference from the parental peptide). With chain 1 F15E the enrichment was -2.62 log2 (difference from the parental peptide). With chain 1 F15W the enrichment was -0.236 log2 (difference from the parental peptide). With chain 1 E2M the enrichment was -1.79 log2 (difference from the parental peptide). chain 1 D4Y was tested, and the enrichment was -1.35 log2 (difference from the parental peptide). In the case of chain 1 T12P, the enrichment is reported as 1.92 log2 (difference from the parental peptide). With chain 1 D4W the enrichment was -1.54 log2 (difference from the parental peptide). For chain 1 C13F, the enrichment was -5.66 log2 (difference from the parental peptide). chain 1 D3F was tested, and the enrichment was -1.57 log2 (difference from the parental peptide). For chain 1 D4N, the enrichment was -1.99 log2 (difference from the parental peptide). In the case of chain 1 Y8L, the enrichment is reported as -6.1 log2 (difference from the parental peptide). With chain 1 E1S the enrichment was -0.81 log2 (difference from the parental peptide). chain 1 A7H was tested, and the enrichment was -0.736 log2 (difference from the parental peptide). chain 1 F15S was tested, and the enrichment was -0.989 log2 (difference from the parental peptide). chain 1 Y14D was tested, and the enrichment was -5.4 log2 (difference from the parental peptide). In the case of chain 1 A9P, the enrichment is reported as -6 log2 (difference from the parental peptide). With chain 1 A9E the enrichment was -0.109 log2 (difference from the parental peptide). chain 1 T6K was tested, and the enrichment was -0.184 log2 (difference from the parental peptide). With chain 1 E2H the enrichment was -2.48 log2 (difference from the parental peptide). With chain 1 T6M the enrichment was 0.172 log2 (difference from the parental peptide). With chain 1 P10A the enrichment was -7.91 log2 (difference from the parental peptide). For chain 1 T6Y, the enrichment was -0.339 log2 (difference from the parental peptide). For chain 1 T12M, the enrichment was 0.511 log2 (difference from the parental peptide). For chain 1 F15M, the enrichment was 0.0729 log2 (difference from the parental peptide). With chain 1 E2T the enrichment was -2.6 log2 (difference from the parental peptide). With chain 1 D4E the enrichment was -0.211 log2 (difference from the parental peptide). chain 1 Y5W was tested, and the enrichment was 1.32 log2 (difference from the parental peptide). With chain 1 Y14Q the enrichment was -3.29 log2 (difference from the parental peptide). For chain 1 A7R, the enrichment was 1.21 log2 (difference from the parental peptide). chain 1 A9Y was tested, and the enrichment was -7.05 log2 (difference from the parental peptide). chain 1 F15K was tested, and the enrichment was -0.831 log2 (difference from the parental peptide). In the case of chain 1 T6N, the enrichment is reported as 1.41 log2 (difference from the parental peptide). For chain 1 D4F, the enrichment was -2.31 log2 (difference from the parental peptide). chain 1 F15D was tested, and the enrichment was -4.04 log2 (difference from the parental peptide). In the case of chain 1 E2Q, the enrichment is reported as -1.4 log2 (difference from the parental peptide). For chain 1 E1W, the enrichment was -2.19 log2 (difference from the parental peptide). chain 1 E2W was tested, and the enrichment was -1.25 log2 (difference from the parental peptide). For chain 1 Y14T, the enrichment was -1.1 log2 (difference from the parental peptide). With chain 1 Y8N the enrichment was -8.33 log2 (difference from the parental peptide). With chain 1 A9S the enrichment was -1.48 log2 (difference from the parental peptide). In the case of chain 1 C13W, the enrichment is reported as -6.26 log2 (difference from the parental peptide). For chain 1 D3T, the enrichment was -2 log2 (difference from the parental peptide). In the case of chain 1 T16E, the enrichment is reported as 1.13 log2 (difference from the parental peptide). chain 1 A7P was tested, and the enrichment was 0.82 log2 (difference from the parental peptide). In the case of chain 1 L11E, the enrichment is reported as -3.32 log2 (difference from the parental peptide). With chain 1 D3K the enrichment was -3.97 log2 (difference from the parental peptide). With chain 1 T16P the enrichment was 1.74 log2 (difference from the parental peptide). chain 1 Y5E was tested, and the enrichment was -1.36 log2 (difference from the parental peptide). chain 1 F15V was tested, and the enrichment was 1.03 log2 (difference from the parental peptide). In the case of chain 1 A9T, the enrichment is reported as -3.35 log2 (difference from the parental peptide). chain 1 A7E was tested, and the enrichment was 2.03 log2 (difference from the parental peptide). With chain 1 F15N the enrichment was -2.68 log2 (difference from the parental peptide). For chain 1 T16Y, the enrichment was -0.525 log2 (difference from the parental peptide). In the case of chain 1 F15T, the enrichment is reported as 0.316 log2 (difference from the parental peptide). With chain 1 D3S the enrichment was -1.57 log2 (difference from the parental peptide). chain 1 T6P was tested, and the enrichment was -2.2 log2 (difference from the parental peptide). With chain 1 T6G the enrichment was 2.9 log2 (difference from the parental peptide). With chain 1 C13M the enrichment was -4.59 log2 (difference from the parental peptide). With chain 1 T16V the enrichment was 0.0426 log2 (difference from the parental peptide). chain 1 T16S was tested, and the enrichment was 0.936 log2 (difference from the parental peptide). For chain 1 A7S, the enrichment was 0.379 log2 (difference from the parental peptide). For chain 1 T16W, the enrichment was -0.639 log2 (difference from the parental peptide). For chain 1 T12K, the enrichment was -4.78 log2 (difference from the parental peptide). With chain 1 D4A the enrichment was -1.65 log2 (difference from the parental peptide). chain 1 Y8W was tested, and the enrichment was 0.189 log2 (difference from the parental peptide). For chain 1 P10Y, the enrichment was -6.76 log2 (difference from the parental peptide). With chain 1 F15H the enrichment was 0.242 log2 (difference from the parental peptide). With chain 1 E2A the enrichment was -1.63 log2 (difference from the parental peptide). With chain 1 A7V the enrichment was -1.12 log2 (difference from the parental peptide). For chain 1 P10W, the enrichment was -5.72 log2 (difference from the parental peptide). In the case of chain 1 T6H, the enrichment is reported as 0.0995 log2 (difference from the parental peptide). chain 1 D4H was tested, and the enrichment was -3.06 log2 (difference from the parental peptide). For chain 1 A7G, the enrichment was -0.215 log2 (difference from the parental peptide).
